Literature values as cited in publication PMC9441699 (Frontiers in Cellular and Infection Microbiology, 2022).

Tested on: pseudotyped SARS-CoV

B1: Lactoferrin: antiviral milk protein (protein, UniProt P02788 20-710, looked up)
Lactotransferrin: GRRRSVQWCAVSQPEATKCFQWQRNMRKVRGPPVSCIKRDSPIQCIQAIAENRADAVTLDGGFIYEAGLAPYKLRPVAAEVYGTERQPRTHYYAVAVVKKGGSFQLNELQGLKSCHTGLRRTAGWNVPIGTLRPFLNWTGPPEPIEAAVARFFSASCVPGADKGQFPNLCRLCAGTGENKCAFSSQEPYFSYSGAFKCLRDGAGDVAFIRESTVFEDLSDEAERDEYELLCPDNTRKPVDKFKDCHLARVPSHAVVARSVNGKEDAIWNLLRQAQEKFGKDKSPKFQLFGSPSGQKDLLFKDSAIGFSRVPPRIDSGLYLGSGYFTAIQNLRKSEEEVAARRARVVWCAVGEQELRKCNQWSGLSEGSVTCSSASTTEDCIALVLKGEADAMSLDGGYVYTAGKCGLVPVLAENYKSQQSSDPDPNCVDRPVEGYLAVAVVRRSDTSLTWNSVKGKKSCHTAVDRTAGWNIPMGLLFNQTGSCKFDEYFSQSCAPGSDPRSNLCALCIGDEQGENKCVPNSNERYYGYTGAFRCLAENAGDVAFVKDVTVLQNTDGNNNEAWAKDLKLADFALLCLDGKRKPVTEARSCHLAMAPNHAVVSRMDKVERLKQVLLHQQAKFGRNGSDCPDKFCLFQSETKNLLFNDNTECLARLHGKTTYEKYLGPQYVAGITNLKKCSTSPLLEACEFLRK
- inhibition of pseudotyped SARS-CoV: 50%
